Tests used:
[1] = biological target: squid hemocyanin (Todarodes pacificus) (Todarodes pacificus); assay: SAXS; untreated control Hc (0.1 MPa, 25 °C) in solution; Kratky-type camera; aggregation numbers calculated with SAXS Quant 2.0
[2] = biological target: squid hemocyanin (Todarodes pacificus) (Todarodes pacificus); assay: SAXS; Hc after high hydrostatic pressure at 600 MPa for 20 min; Kratky-type camera; aggregation numbers calculated with SAXS Quant 2.0
[3] = biological target: squid hemocyanin (Todarodes pacificus) (Todarodes pacificus); assay: SAXS; Hc after high hydrostatic pressure at 400 MPa for 20 min; Kratky-type camera; aggregation numbers calculated with SAXS Quant 2.0
[4] = biological target: squid hemocyanin (Todarodes pacificus) (Todarodes pacificus); assay: SAXS; Hc after high hydrostatic pressure at 200 MPa for 20 min; Kratky-type camera; aggregation numbers calculated with SAXS Quant 2.0

〈Nagg〉G (Guinier aggregation number) [1]: 10.2
〈Nagg〉Q (average aggregation number) [1]: 9.3
〈Nagg〉G (Guinier aggregation number) [2]: 16
〈Nagg〉Q (average aggregation number) [2]: 15.2
〈Nagg〉G (Guinier aggregation number) [3]: 14.2
〈Nagg〉Q (average aggregation number) [3]: 14.4
〈Nagg〉G (Guinier aggregation number) [4]: 11.9
〈Nagg〉Q (average aggregation number) [4]: 12.7
Substance: squid hemocyanin (Todarodes pacificus) (natural protein)

— publication PMC5256278
